Experimental findings from the RNAGym collection of RNA variant scans (doi:10.1093/molbev/msab373) are described below.

B1: Azoarcus group I ribozyme (parent)
chain: GUGCCUUGCGCCGGGAAACCACGCAAGGGAUGGUGUCAAAUUCGGCGAAACCUAAGCGCCCGCCCGGGCGUAUGGCAACGCCGAGCCAAGCUUCGGCGCCUGCGCCGAUGAAGGUGUAGAGACUAGACGGCACCCACCUAAGGCAAACGCUAUGGUGAAGGCAUAGUCCAGGGAGUGGCGAAAGUCACACAAACCGG

In this series the parent is B1. In words: reverse-splicing fitness (ratio to wild type); higher = more active; in vitro selection; Mg2+ level not given. Summed up: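 An in vitro group I ribozyme library with randomized positions was T7-transcribed and gel-purified. In triplicate, 10 pmol RNA in EPPS pH 7.5 was reacted with 50 pmoles of a 30-nt RNA substrate for 1 h at 37 °C across several added MgCl2 levels (1–48 mM), then stopped with EDTA. Products were reverse transcribed from a substrate-complementary primer, PCR-amplified and sequenced (HiSeq 4000). Fitness is a variant's read proportion after selection over that before, normalised to wild type.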
Regarding A120G A145C, the reverse-splicing fitness is 0.479.

C82G A120U C150U C169U U176G: the reverse-splicing fitness was found to be 0.00193. To A111C A120C A145U C169U U176A belongs 0.035. Then A145G C150U U176G, with 0.308. For C82G A111G A120G A145G C150G C169U U176A, the reverse-splicing fitness amounted to 0.0127. To C82G A111U A120G A145U C169A belongs 0.00825; to C82G A111U A120U A145G C150A C169A, 0.00617.

Turning to C82G A111U A120C A145U C150U U176G, the reverse-splicing fitness is 0.00687. Turning to A111U A120G A145U C150U C169G, the reverse-splicing fitness turned out to be 0.129. Then C82A A111G A120G A145U C150U C169A U176A, with 0.0141. To C82U A111G A120U A145G C150G U176C belongs 0.00719; to A120U A145C C169A U176A, 0.00275. To C82G A111U A120U C150G C169A U176A belongs 0.00533. For C82U A111G A120C C150G C169U U176G, the reverse-splicing fitness was determined as 0.00489. Consider C82G A111C A120C A145U C150U C169U U176G, for which the reverse-splicing fitness was 0.00674. For C82G A111C A120U C150G C169A U176A, the reverse-splicing fitness came to 0.00878. To C82A A145G C150A C169A U176C belongs 0.0221; to A111C A120U A145G C150U U176G, 0.0303; to C82G A111U A120U A145U C169G U176C, 0.0026. To A120U A145G C150G C169A belongs 0.00998.

As for C82A A111C A120U A145C C150G C169A U176C, the reverse-splicing fitness was 0.00263. For the variant C82G A111U A120G A145G C150U C169U U176C, the reverse-splicing fitness was found to be 0.0151.

For A111U A120G A145G U176G, the reverse-splicing fitness is 0.00558. Turning to A111U A120G A145G U176A, the reverse-splicing fitness is 0.0417.

As to C82A A145U C150G C169A U176G, the reverse-splicing fitness stood at 0.00583. For C82U A111U A120U A145C C150U C169U, the reverse-splicing fitness amounted to 0.00288. Regarding A111C A120C A145C C150A U176G, the reverse-splicing fitness worked out at 0.0084.

In the case of C82A A120G C150A C169G U176A, the reverse-splicing fitness was found to be 0.0195. Take C82U A111C A120U A145C C150U C169U U176C: the reverse-splicing fitness is 0.00255. For C82A A111U A120U A145G C150A C169U U176A, the reverse-splicing fitness stood at 0.00626. To C82A A111U A120C A145U C150A U176C belongs 0.0223; to C82A A111G A120U A145C C150A C169U U176C, 0.00198; to A120G A145U C150U U176C, 0.184. Take C82A A111C A120U A145U C150U U176G: the reverse-splicing fitness came out at 0.00353. On to A111C A120G A145G C150G C169A U176C, for which the reverse-splicing fitness is 0.0131.

On to C82A A111G A145U C150A C169U U176G, for which the reverse-splicing fitness amounted to 0.00627. For C82G A111U A120U A145U C150G U176C, the reverse-splicing fitness was determined as 0.006. Then C82A A111U A120G A145U C169U U176C, with 0.0159. Take C82A A111C A120U A145G C169U U176C: the reverse-splicing fitness amounted to 0.00417. As for C82U A111G A120U A145U C150G C169U U176C, the reverse-splicing fitness is 0.00227.

On to A111G A120G A145U C169U U176A, for which the reverse-splicing fitness stood at 0.0839. As to A120G A145U C150U C169G, the reverse-splicing fitness was 0.487. C82G A111U A145C C169G U176A: the reverse-splicing fitness was 0.0258. Then C82A A111C A145C C169U U176A, with 0.0142. To C82A A111U A120C A145U U176G belongs 0.00733; to C82G A111C A120U C150U C169G U176A, 0.00503. On to C82U A120U A145U C169U, for which the reverse-splicing fitness is 0.00594. Then C82G A111C A120G C150A C169A U176G, with 0.00716; and A111C A120C C150A, with 0.0821. To C82A A111G A145G C150U C169A U176C belongs 0.0181; to A111G A120U A145C C150G C169A U176A, 0.00204. Then C82U A145G C150U, with 0.527; and C150U C169G U176G, with 0.0074.

C82G A111C A120G A145C C150G C169A U176A: the reverse-splicing fitness is 0.00812. For C82U A111G C150U C169G U176C, the reverse-splicing fitness amounted to 0.0162. Consider C82U A111C A120G A145C C150G, for which the reverse-splicing fitness is 0.007.

With C82A A111G A120U A145U C150G U176A, the reverse-splicing fitness is 0.0037. Then C82U A111C A120U A145C U176G, with 0.00296. As for C82A A111U A120G C150A, the reverse-splicing fitness worked out at 0.0106.

As to C82U A111U A120G A145G C150U C169U U176G, the reverse-splicing fitness turned out to be 0.00481. To C82A A111C A120U C150U C169A U176G belongs 0.00324; to C82G A111U A120U C150A C169A U176C, 0.00429; to C82G A111C A120G A145U C169U U176G, 0.00395. To C82U A111U A120U A145C C150U U176A belongs 0.00399; to C150U C169A U176G, 0.00623. To C82A A111G A145U C169G U176G belongs 0.00511; to A111C A120C A145C C150U C169G U176A, 0.0202; to C82U A111C A120C A145C C150A C169A U176C, 0.00754. As for C82A A120C C150G C169G U176C, the reverse-splicing fitness turned out to be 0.00601. Take C82A A111U A120C C150U C169A: the reverse-splicing fitness amounted to 0.0109. As for A145C C150G C169A, the reverse-splicing fitness stood at 0.0221. For C82G A120C A145G C150U C169A U176G, the reverse-splicing fitness was 0.0065. In the case of C82A C150A C169A U176A, the reverse-splicing fitness was determined as 0.0211. To C82A A111G A120C A145G C150U C169U U176A belongs 0.0141; to C82G A111G A120U A145G C150G C169G U176G, 0.00372. To C82G A111G A120U A145G C150G C169G U176C belongs 0.00607.

As for C82A A120U A145G C150U C169U, the reverse-splicing fitness was found to be 0.00646. C82A A120G C150G U176G: the reverse-splicing fitness came out at 0.00336.

C82G A111U A120C A145U C169A U176G: the reverse-splicing fitness was 0.00591. For the variant C82G A111U A120C A145U C169A U176C, the reverse-splicing fitness worked out at 0.0142. On to C82U A111G A120C A145U C169G U176G, for which the reverse-splicing fitness came to 0.00375. On to C82G A111C A145C C150A C169U, for which the reverse-splicing fitness came out at 0.00955.

In the case of C82A A145C C169A U176C, the reverse-splicing fitness stood at 0.00644.
